Publication PMC10584365 (Nature, 2023)
Values joined by “and” are separate entries in the source; they are usually repeats but may differ in a detail not shown here. Identical values can stand only once.

B1: full-length human TRPV3 channel (expressed in P. pastoris) (natural protein, UniProt Q8NET8 1-790, looked up)
chain: MKAHPKEMVPLMGKRVAAPSGNPAILPEKRPAEITPTKKSAHFFLEIEGFEPNPTVAKTSPPVFSKPMDSNIRQCISGNCDDMDSPQSPQDDVTETPSNPNSPSAQLAKEEQRRKKRRLKKRIFAAVSEGCVEELVELLVELQELCRRRHDEDVPDFLMHKLTASDTGKTCLMKALLNINPNTKEIVRILLAFAEENDILGRFINAEYTEEAYEGQTALNIAIERRQGDIAALLIAAGADVNAHAKGAFFNPKYQHEGFYFGETPLALAACTNQPEIVQLLMEHEQTDITSRDSRGNNILHALVTVAEDFKTQNDFVKRMYDMILLRSGNWELETTRNNDGLTPLQLAAKMGKAEILKYILSREIKEKRLRSLSRKFTDWAYGPVSSSLYDLTNVDTTTDNSVLEITVYNTNIDNRHEMLTLEPLHTLLHMKWKKFAKHMFFLSFCFYFFYNITLTLVSYYRPREEEAIPHPLALTHKMGWLQLLGRMFVLIWAMCISVKEGIAIFLLRPSDLQSILSDAWFHFVFFIQAVLVILSVFLYLFAYKEYLACLVLAMALGWANMLYYTRGFQSMGMYSVMIQKVILHDVLKFLFVYIVFLLGFGVALASLIEKCPKDNKDCSSYGSFSDAVLELFKLTIGLGDLNIQQNSKYPILFLFLLITYVILTFVLLLNMLIALMGETVENVSKESERIWRLQRARTILEFEKMLPEWLRSRFRMGELCKVAEDDFRLCLRINEVKWTEWKTHVSFLNEDPGPVRRTDFNKIQDSSRNNSKTTLNAFEEVEEFPETSV
B2: full-length human TRPV3 (expressed in HEK293S GnTI- cells) (natural protein, UniProt Q8NET8 1-790, looked up)
chain: B1 chain

Biological target: the molecule itself
Assay: high-speed atomic force microscopy

| Protein | stoichiometry N |
| --- | --- |
| B1 | 4 and 5 |
| B2 | 3 and 2 |
